Test results published in paper PMC12416549 (2024).

T1: TNFR1 (Homo sapiens, UniProt P19438)
T1 chain: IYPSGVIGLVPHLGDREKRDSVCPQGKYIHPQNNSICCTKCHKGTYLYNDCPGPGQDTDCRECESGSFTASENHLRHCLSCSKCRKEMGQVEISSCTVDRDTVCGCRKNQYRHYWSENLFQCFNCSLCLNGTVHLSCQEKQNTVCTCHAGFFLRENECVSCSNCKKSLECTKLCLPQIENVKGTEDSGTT

B1: R61S (designed binder)
chain: MTLQELLREEALRRAEAEAFRYALELLAEKFPEQKEYLLDLAEEIESQIRSLSGVDVEDVSKFLDKEWAWVKELLAEHPAELAEVEAARAARLAELRAEVEAKVAA
B2: V57Q (designed binder)
chain: MTLQELLREEALRRAEAEAFRYALELLAEKFPEQKEYLLDLAEEIESQIRSLSGVDQEDVRKFLDKEWAWVKELLAEHPAELAEVEAARAARLAELRAEVEAKVAA
B3: A69V (designed binder)
chain: MTLQELLREEALRRAEAEAFRYALELLAEKFPEQKEYLLDLAEEIESQIRSLSGVDVEDVRKFLDKEWVWVKELLAEHPAELAEVEAARAARLAELRAEVEAKVAA
B4: I45K (designed binder)
chain: MTLQELLREEALRRAEAEAFRYALELLAEKFPEQKEYLLDLAEEKESQIRSLSGVDVEDVRKFLDKEWAWVKELLAEHPAELAEVEAARAARLAELRAEVEAKVAA
B5: L38E (designed binder)
chain: MTLQELLREEALRRAEAEAFRYALELLAEKFPEQKEYELDLAEEIESQIRSLSGVDVEDVRKFLDKEWAWVKELLAEHPAELAEVEAARAARLAELRAEVEAKVAA
B6: D40I (designed binder)
chain: MTLQELLREEALRRAEAEAFRYALELLAEKFPEQKEYLLILAEEIESQIRSLSGVDVEDVRKFLDKEWAWVKELLAEHPAELAEVEAARAARLAELRAEVEAKVAA
B7: L41P (designed binder)
chain: MTLQELLREEALRRAEAEAFRYALELLAEKFPEQKEYLLDPAEEIESQIRSLSGVDVEDVRKFLDKEWAWVKELLAEHPAELAEVEAARAARLAELRAEVEAKVAA
B8: S51E (designed binder)
chain: MTLQELLREEALRRAEAEAFRYALELLAEKFPEQKEYLLDLAEEIESQIRELSGVDVEDVRKFLDKEWAWVKELLAEHPAELAEVEAARAARLAELRAEVEAKVAA
B9: Y37Q (designed binder)
chain: MTLQELLREEALRRAEAEAFRYALELLAEKFPEQKEQLLDLAEEIESQIRSLSGVDVEDVRKFLDKEWAWVKELLAEHPAELAEVEAARAARLAELRAEVEAKVAA
B10: E10R (designed binder)
chain: MTLQELLRERALRRAEAEAFRYALELLAEKFPEQKEYLLDLAEEIESQIRSLSGVDVEDVRKFLDKEWAWVKELLAEHPAELAEVEAARAARLAELRAEVEAKVAA
B11: P79F (designed binder)
chain: MTLQELLREEALRRAEAEAFRYALELLAEKFPEQKEYLLDLAEEIESQIRSLSGVDVEDVRKFLDKEWAWVKELLAEHFAELAEVEAARAARLAELRAEVEAKVAA
B12: D56E (designed binder)
chain: MTLQELLREEALRRAEAEAFRYALELLAEKFPEQKEYLLDLAEEIESQIRSLSGVEVEDVRKFLDKEWAWVKELLAEHPAELAEVEAARAARLAELRAEVEAKVAA
B13: A83R (designed binder)
chain: MTLQELLREEALRRAEAEAFRYALELLAEKFPEQKEYLLDLAEEIESQIRSLSGVDVEDVRKFLDKEWAWVKELLAEHPAELREVEAARAARLAELRAEVEAKVAA
B14: A19H (designed binder)
chain: MTLQELLREEALRRAEAEHFRYALELLAEKFPEQKEYLLDLAEEIESQIRSLSGVDVEDVRKFLDKEWAWVKELLAEHPAELAEVEAARAARLAELRAEVEAKVAA
B15: A98I (designed binder)
chain: MTLQELLREEALRRAEAEAFRYALELLAEKFPEQKEYLLDLAEEIESQIRSLSGVDVEDVRKFLDKEWAWVKELLAEHPAELAEVEAARAARLAELRIEVEAKVAA
B16: V60D (designed binder)
chain: MTLQELLREEALRRAEAEAFRYALELLAEKFPEQKEYLLDLAEEIESQIRSLSGVDVEDDRKFLDKEWAWVKELLAEHPAELAEVEAARAARLAELRAEVEAKVAA
B17: L64I (designed binder)
chain: MTLQELLREEALRRAEAEAFRYALELLAEKFPEQKEYLLDLAEEIESQIRSLSGVDVEDVRKFIDKEWAWVKELLAEHPAELAEVEAARAARLAELRAEVEAKVAA
B18: A83N (designed binder)
chain: MTLQELLREEALRRAEAEAFRYALELLAEKFPEQKEYLLDLAEEIESQIRSLSGVDVEDVRKFLDKEWAWVKELLAEHPAELNEVEAARAARLAELRAEVEAKVAA
B19: A42N (designed binder)
chain: MTLQELLREEALRRAEAEAFRYALELLAEKFPEQKEYLLDLNEEIESQIRSLSGVDVEDVRKFLDKEWAWVKELLAEHPAELAEVEAARAARLAELRAEVEAKVAA
B20: P79E (designed binder)
chain: MTLQELLREEALRRAEAEAFRYALELLAEKFPEQKEYLLDLAEEIESQIRSLSGVDVEDVRKFLDKEWAWVKELLAEHEAELAEVEAARAARLAELRAEVEAKVAA
B21: L6D (designed binder)
chain: MTLQEDLREEALRRAEAEAFRYALELLAEKFPEQKEYLLDLAEEIESQIRSLSGVDVEDVRKFLDKEWAWVKELLAEHPAELAEVEAARAARLAELRAEVEAKVAA
B22: L7K (designed binder)
chain: MTLQELKREEALRRAEAEAFRYALELLAEKFPEQKEYLLDLAEEIESQIRSLSGVDVEDVRKFLDKEWAWVKELLAEHPAELAEVEAARAARLAELRAEVEAKVAA
B23: E25L (designed binder)
chain: MTLQELLREEALRRAEAEAFRYALLLLAEKFPEQKEYLLDLAEEIESQIRSLSGVDVEDVRKFLDKEWAWVKELLAEHPAELAEVEAARAARLAELRAEVEAKVAA
B24: L24T (designed binder)
chain: MTLQELLREEALRRAEAEAFRYATELLAEKFPEQKEYLLDLAEEIESQIRSLSGVDVEDVRKFLDKEWAWVKELLAEHPAELAEVEAARAARLAELRAEVEAKVAA
B25: L74K (designed binder)
chain: MTLQELLREEALRRAEAEAFRYALELLAEKFPEQKEYLLDLAEEIESQIRSLSGVDVEDVRKFLDKEWAWVKEKLAEHPAELAEVEAARAARLAELRAEVEAKVAA
B26: L96N (designed binder)
chain: MTLQELLREEALRRAEAEAFRYALELLAEKFPEQKEYLLDLAEEIESQIRSLSGVDVEDVRKFLDKEWAWVKELLAEHPAELAEVEAARAARLAENRAEVEAKVAA
B27: K72L (designed binder)
chain: MTLQELLREEALRRAEAEAFRYALELLAEKFPEQKEYLLDLAEEIESQIRSLSGVDVEDVRKFLDKEWAWVLELLAEHPAELAEVEAARAARLAELRAEVEAKVAA
B28: R50Q (designed binder)
chain: MTLQELLREEALRRAEAEAFRYALELLAEKFPEQKEYLLDLAEEIESQIQSLSGVDVEDVRKFLDKEWAWVKELLAEHPAELAEVEAARAARLAELRAEVEAKVAA
B29: A106Q (designed binder)
chain: MTLQELLREEALRRAEAEAFRYALELLAEKFPEQKEYLLDLAEEIESQIRSLSGVDVEDVRKFLDKEWAWVKELLAEHPAELAEVEAARAARLAELRAEVEAKVAQ
B30: L39V (designed binder)
chain: MTLQELLREEALRRAEAEAFRYALELLAEKFPEQKEYLVDLAEEIESQIRSLSGVDVEDVRKFLDKEWAWVKELLAEHPAELAEVEAARAARLAELRAEVEAKVAA
B31: A94D (designed binder)
chain: MTLQELLREEALRRAEAEAFRYALELLAEKFPEQKEYLLDLAEEIESQIRSLSGVDVEDVRKFLDKEWAWVKELLAEHPAELAEVEAARAARLDELRAEVEAKVAA
B32: P79W (designed binder)
chain: MTLQELLREEALRRAEAEAFRYALELLAEKFPEQKEYLLDLAEEIESQIRSLSGVDVEDVRKFLDKEWAWVKELLAEHWAELAEVEAARAARLAELRAEVEAKVAA
B33: A42K (designed binder)
chain: MTLQELLREEALRRAEAEAFRYALELLAEKFPEQKEYLLDLKEEIESQIRSLSGVDVEDVRKFLDKEWAWVKELLAEHPAELAEVEAARAARLAELRAEVEAKVAA
B34: A19W (designed binder)
chain: MTLQELLREEALRRAEAEWFRYALELLAEKFPEQKEYLLDLAEEIESQIRSLSGVDVEDVRKFLDKEWAWVKELLAEHPAELAEVEAARAARLAELRAEVEAKVAA

Biological target: T1, TNFR1
Assay: yeast display SC50
For B1, the “apparent Kd (screen)” value was 0.79 nM. B2 was tested, and the “apparent Kd (screen)” value was 0.869 nM. For B3, the “apparent Kd (screen)” value was 0.653 nM. B4 was tested, and the “apparent Kd (screen)” value was 3.99 nM. For B5, the “apparent Kd (screen)” value was 10.4 nM. With B6 the “apparent Kd (screen)” value was 13.8 nM. B7 was tested, and the “apparent Kd (screen)” value was 1.27 nM. With B8 the “apparent Kd (screen)” value was 2.05 nM. For B9, the “apparent Kd (screen)” value was 8.56 nM. In the case of B10, the “apparent Kd (screen)” value is reported as 10.4 nM. B11 was tested, and the “apparent Kd (screen)” value was 0.653 nM. With B12 the “apparent Kd (screen)” value was 0.593 nM. In the case of B13, the “apparent Kd (screen)” value is reported as 0.49 nM. In the case of B14, the “apparent Kd (screen)” value is reported as 0.718 nM. With B15 the “apparent Kd (screen)” value was 0.653 nM. In the case of B16, the “apparent Kd (screen)” value is reported as 1.05 nM. For B17, the “apparent Kd (screen)” value was 1.16 nM. With B18 the “apparent Kd (screen)” value was 0.653 nM. For B19, the “apparent Kd (screen)” value was 0.869 nM. In the case of B20, the “apparent Kd (screen)” value is reported as 0.446 nM. In the case of B21, the “apparent Kd (screen)” value is reported as 1.27 nM. In the case of B22, the “apparent Kd (screen)” value is reported as 16.7 nM. For B23, the “apparent Kd (screen)” value was 0.539 nM. For B24, the “apparent Kd (screen)” value was 0.446 nM. For B25, the “apparent Kd (screen)” value was 13.8 nM. With B26 the “apparent Kd (screen)” value was 0.446 nM. B27 was tested, and the “apparent Kd (screen)” value was 0.79 nM. B28 was tested, and the “apparent Kd (screen)” value was 0.49 nM. In the case of B29, the “apparent Kd (screen)” value is reported as 0.142 nM. For B30, the “apparent Kd (screen)” value was 0.653 nM. In the case of B31, the “apparent Kd (screen)” value is reported as 0.593 nM. B32 was tested, and the “apparent Kd (screen)” value was 0.49 nM. In the case of B33, the “apparent Kd (screen)” value is reported as 3.99 nM. In the case of B34, the “apparent Kd (screen)” value is reported as 9.41 nM.
